Test results published in patent US8030017B2, “Thermostable luciferases and methods of production” (Promega Corporation, priority 1997, dated 2011).

Assays:
[1] = Stability of luciferase activity in cell lysates at room temperature (with Triton X-100); format: physicochemical; details: over 5 hours at room temperature
Procedure: Although the luminescence activity of LucPpl within colonies of E. coli appeared to be thermostable to above 60° C., in lysates these luciferases had relatively low stability. They were particularly unstable in the presence of Triton X-100 detergent. When lysates are prepared containing the commonly used firefly luciferase, the enzyme retains greater than 90% activity over 5 hours at room temperature. In contrast, the activity of the LucPpl luciferases would decrease several fold over the same period.
The thermostability of the mutant luciferases in cell lysates was compared at room temperature (FIG. 63). Dilute lysates were buffered at pH 7.5 and contained 1% Triton X-100; typical conditions for lysates of mammalian cells.

[2] = Robotic thermostability screen of LucPpl mutants: decrease of activity over 10 hours at screening temperature; format: physicochemical; details: 47° C., third cycle of random mutagenesis
Procedure: “Enzyme stability” was determined by the rate of activity loss from cell lysates over 10 hours. In successive rounds of evolution the incubation temperature of the lysates was increased.
To prepare luciferases having certain performance, a method for in vitro evolution of enzyme function, as described above, was employed. Briefly described, the method is a recursive process of generating random mutations and screening for desirable properties. It was originally developed primarily to increase the thermostability of luciferases, although other enzymological characteristics are also subject to optimization by the screening criteria. A slightly different strategy was used to achieve the properties described above since two related luciferases needed to be optimized concomitantly.
The luciferases from P. plagiophthalamus have 13 cysteines, which are potentially sensitive to oxidation. This is in contrast to the commonly used firefly luciferase, which has only 4 cysteines. To remove any cysteines that may limit enzyme stability, oligonucleotide-directed mutagenesis was used to randomize the cysteine codons. Three sets of oligonucleotides were used: non-conserved cysteines in regions of low sequence homology (positions 69, 114, 160, 194, 335, and 460), non-conserved cysteines in regions of higher sequence homology (positions 127, 213, 310, and 311), and highly conserved cysteines (positions 60, 80, and 388). […]
The random mutagenesis process was repeated using the best clone from the previous cycle of mutagenesis (Luc53-0G01). […] The discrepancy in measured activity of Luc53-0G01 in this cycle of mutagenesis compared to the previous cycle may be due to changes in the assay procedure and recalibration of the incubator temperature. It should be noted that the recorded thermostabilities from each stage of mutagenesis are calculated from robotic data using abbreviated assay procedures. The data are intended to indicate the relative stabilities of enzyme mutants when assayed in the same screen, rather than providing an accurate quantitation of thermostability.

[3] = Luminescence signal intensity and signal stability in vitro of LucPpl luciferases; format: biochemical; details: lysate with 1% Triton X-100
Text: For luminescence assays requiring only a few second, the wild-type yellow-green-emitting luciferase produces a very stable signal (the initial rise in the signal evident in the first 2 seconds is due to the response time of the luminometer, not the kinetics of the luminescence reaction). However, the signal intensity was reduced about 30% by the presence of 1% Triton X-100 in the lysate (diluted 1:5 with the addition of assay reagent). In contrast, the luminescence intensity of the mutant luciferases was unaffected by the presence of Triton X-100. […] However, the data are not corrected for the efficiency of enzyme expression in E. coli. Thus, differences in luminescence intensity may not correlate to changes in enzyme specific activity, nor is the expression efficiency in E. coli necessarily relevant to expression in mammalian cells.
For batches of assays requiring more than an hour to process, the signal stability of the yellow-green-emitting luciferase is inadequate under the conditions tested. […] Attempts to correct this by the in vitro evolution yielded mixed results. The signal stability of all three mutant enzymes was generally much improved over the parent yellow-green enzyme for three hours after substrate addition. However, this was accompanied by a greater initial decrease in luminescence during the first half-hour. […]

colonies of E. coli = experiment: Luminescence of E. coli colonies expressing LucPpl luciferases at room temperature and on heating; format: cell-based; details: room temperature
Procedure: From colonies of E. coli expressing the luciferases, Luc81-5F01 and Luc81-6G01 produced luminescence most rapidly at room temperature upon addition of luciferin. The luminescence was more rapid and brighter than colonies expressing the wild-type green- and yellow-green-emitting luciferases. The luminescence from all the selected colonies appeared green-shifted compared to the yellow-green parent clone. […] Some of the mutant clones loose their luminescence at 65° C., but the three preferred clones remain bright above 70° C. No spectral changes upon heating the colonies were evident until above 70° C., where those clones still retaining activity began to red-shift slightly (sometime, the initial phases of enzyme denaturation are accompanied by a red shift in the luminescence). The luminescence characteristics of the three preferred mutants are quite similar.

Row | Molecule | activity retained in lysates [1] | decrease of activity [2] | stability of luminescence signal in assays of a few seconds [3] | onset of luminescence in E. coli colonies upon addition of luciferin (colonies of E. coli)
1 | firefly luciferase: the commonly used firefly luciferase | greater than 90% | – | – | –
2 | Luc81-6G01: LucPplYG mutant luciferase, SEQ ID NO:26 (protein, Mutant luciferase) MMKREKNVIYGPEPLHPLEDLTAGEMLFRALRKHSHLPQALVDVVGDESLSYKEFFEATVLLAQSLHNCGYKMNDVVSICAENNTRFFIPVIAAWYIGMIVAPVNESYIPDELCKVMGISKPQIVFTTKNILNKVLEVQSRTNFIKRIIILDTVENIHGCESLPNGISRYSDGNIANFKPLHFDPVEQVAAILCSSGTTGLPKGVMQTHQNICVRLIHALDPRAGTQLIPGVTVLVYLPFFHAFGFSITLGYFMVGLRVIMFRRFDQEAFLKAIQDYEVRSVINVPSVILFLSKSPLVDKYDLSSLRELCCGAAPLAKEVAEVAAKRLNLPGIRCGFGLTESTSANIHSLRDEFKSGSLGRVTPLMAAKIADRETGKALGPNQVGELCIKGPMVSKGYVNNVEATKEAIDDDGWLHSGDFGYYDEDEHFYVVDRYKELIKYKGSQVAPAELEEILLKNPCIRDVAVVGIPDLEAGELPSAFVVKQPGKEITAKEVYDYLAERVSHTKYLRGGVRFVDSIPRNVTGKITRKELLKQLLEKAGG | – | 100 fold | most stable signal | most rapidly
